As a reminder, the Kd is the free concentration of one partner at which half of the binding sites on the other are occupied at equilibrium, for simple one-to-one binding. A low value points to higher affinity.

In experiment [1] the target is T1, neonatal Fc receptor (FcRn), FCGRT + beta2-microglobulin heterodimer (UniProt P55899+P61769). In words: biolayer interferometry (Octet Red384), dissociation after a pH switch. Particulars: pH 7.2; 150 mM NaCl; association in 50 mM phosphate pH 6; dissociation in 50 mM phosphate pH 7.2 (Methods; Results and Discussion say pH 7.4). A general note: In BLI a coated tip is dipped into the sample, and binding shifts an interference pattern.
T1 sequence (P55899 24-297, chain 1 of 2): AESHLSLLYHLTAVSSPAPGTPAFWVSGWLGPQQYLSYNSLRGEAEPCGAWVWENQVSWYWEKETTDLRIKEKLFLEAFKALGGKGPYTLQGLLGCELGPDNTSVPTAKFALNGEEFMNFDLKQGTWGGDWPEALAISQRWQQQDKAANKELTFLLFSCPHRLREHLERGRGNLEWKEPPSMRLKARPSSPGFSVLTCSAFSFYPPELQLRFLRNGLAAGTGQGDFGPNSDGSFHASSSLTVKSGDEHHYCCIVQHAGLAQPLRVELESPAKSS
T1 sequence (P61769 21-119, chain 2 of 2, further chain): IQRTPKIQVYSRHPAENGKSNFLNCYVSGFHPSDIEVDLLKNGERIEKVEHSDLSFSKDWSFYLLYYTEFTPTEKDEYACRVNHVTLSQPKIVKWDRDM

Experiment [2] deals with human FcRn (human FCGRT & B2M heterodimer) (human) (UniProt P55899). In words: BLI; Octet Red384; FcRn amine-coupled to AR2G tips; 320 nM IgG1 associated at pH 6 and dissociated at pH 7.2; fraction bound 5 s after the start of dissociation (response at 0 s = 100%).
The target in experiment [3] is human FcγRI with a C-terminal AVI-tag and C-terminal His-tag (Sino Biological) (human) (UniProt P12314). Briefly: SPR; Biacore T200, single-cycle kinetics; biotinylated FcγRI captured on a CAPchip, IgG1 injected at 0.06-5 nM; HBS-EP+; 37 °C; 1:1 kinetic model; KD observed. On the technique in general: In SPR one partner is held on a chip, and binding of the other changes the refractive index at the surface.
Sequence of UniProt P12314 (P12314 16-292): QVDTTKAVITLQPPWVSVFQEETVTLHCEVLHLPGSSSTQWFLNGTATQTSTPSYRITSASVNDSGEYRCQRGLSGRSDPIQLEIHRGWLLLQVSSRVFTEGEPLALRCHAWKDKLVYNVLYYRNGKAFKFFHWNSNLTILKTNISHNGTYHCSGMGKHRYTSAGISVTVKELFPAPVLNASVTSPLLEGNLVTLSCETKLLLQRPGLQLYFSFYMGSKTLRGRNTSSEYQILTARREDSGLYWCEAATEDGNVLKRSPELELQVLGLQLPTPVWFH

Experiment [4] concerns the target human FcRn (human FCGRT & B2M heterodimer) (human) (UniProt P55899). In words: BLI; Octet Red384, multicycle kinetics; FcRn amine-coupled to AR2G tips, IgG1 2.5-80 nM; association and dissociation at pH 6 (50 mM phosphate, 150 mM NaCl, 0.1% Tween 20); heterogeneous ligand model; KD observed.
In experiment [5] the target is recombinant human FcγRIIb (human) (UniProt P31994). In words: SPR; SPR imaging (IBIS MX96); biotinylated Fcγ receptors on a streptavidin G-Strep SensEye sensor, IgG injected; HBS pH 7.2/0.05% Tween-80; binding level at equilibrium (2 min) relative to a reference sample set to 100%; 50 and 250 μg/mL IgG1 (FcγRIIa, FcγRIIIa) or 250 and 1000 μg/mL (FcγRIIb, FcγRIIIb); corrected for decay of the surface.
Sequence of UniProt P31994 (P31994 43-310): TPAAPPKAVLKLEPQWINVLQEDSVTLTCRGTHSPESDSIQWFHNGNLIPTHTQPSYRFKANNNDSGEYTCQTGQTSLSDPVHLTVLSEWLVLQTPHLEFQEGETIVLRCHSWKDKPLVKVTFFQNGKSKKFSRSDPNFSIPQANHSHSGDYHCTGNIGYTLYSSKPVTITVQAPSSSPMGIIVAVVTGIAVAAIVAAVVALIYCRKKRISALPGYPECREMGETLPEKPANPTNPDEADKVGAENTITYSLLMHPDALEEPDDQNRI

Experiment [6] addresses recombinant human FcγRIIIa (human) (UniProt P08637). The description is as above.
Sequence of UniProt P08637 (P08637 17-254): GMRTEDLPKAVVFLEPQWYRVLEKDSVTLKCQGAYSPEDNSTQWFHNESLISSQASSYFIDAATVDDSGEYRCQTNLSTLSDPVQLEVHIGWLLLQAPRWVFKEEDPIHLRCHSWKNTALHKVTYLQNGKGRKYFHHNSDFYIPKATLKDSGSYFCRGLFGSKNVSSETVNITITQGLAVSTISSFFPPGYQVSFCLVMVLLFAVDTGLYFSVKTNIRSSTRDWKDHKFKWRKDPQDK
Experiment [7] addresses recombinant human FcγRIIa (human) (UniProt P12318). The experiment is described as above.
Sequence of UniProt P12318 (P12318 34-317): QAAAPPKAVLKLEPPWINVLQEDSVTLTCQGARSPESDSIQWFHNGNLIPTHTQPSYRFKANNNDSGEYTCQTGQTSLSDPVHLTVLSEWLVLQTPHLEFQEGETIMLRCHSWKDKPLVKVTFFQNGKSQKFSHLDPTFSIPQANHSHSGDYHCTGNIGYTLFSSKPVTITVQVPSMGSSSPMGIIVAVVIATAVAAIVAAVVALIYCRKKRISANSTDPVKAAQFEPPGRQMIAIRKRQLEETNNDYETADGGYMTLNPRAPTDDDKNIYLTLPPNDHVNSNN
Experiment [8] has as its target recombinant human FcγRIIIb (human) (UniProt O75015). The description is as above.
Sequence of UniProt O75015 (O75015 17-200): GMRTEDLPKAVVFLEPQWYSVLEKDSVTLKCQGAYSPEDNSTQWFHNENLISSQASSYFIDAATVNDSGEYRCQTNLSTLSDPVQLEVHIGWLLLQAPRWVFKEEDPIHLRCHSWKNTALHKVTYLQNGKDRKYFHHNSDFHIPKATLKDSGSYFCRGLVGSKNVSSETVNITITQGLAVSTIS
Experiment [9] has as its target human FcγRI with a C-terminal AVI-tag and C-terminal His-tag (Sino Biological) (human) (UniProt P12314). In words: SPR; Biacore T200, single-cycle kinetics; biotinylated FcγRI captured on a CAPchip, IgG1 injected at 0.06-5 nM; HBS-EP+; 37 °C; 1:1 kinetic model; KD observed. This is another data set of the same source.
Experiment [10] addresses human FcRn (human FCGRT & B2M heterodimer) (human) (UniProt P55899). In words: BLI; Octet Red384, multicycle kinetics; FcRn amine-coupled to AR2G tips, IgG1 2.5-80 nM; association and dissociation at pH 6 (50 mM phosphate, 150 mM NaCl, 0.1% Tween 20); heterogeneous ligand model; KD observed. This is another data set of the same source.
Experiment [11] deals with T1, neonatal Fc receptor (FcRn), FCGRT + beta2-microglobulin heterodimer. Briefly: biolayer interferometry (Octet Red384), dissociation after a pH switch. Conditions: pH 7.2; 150 mM NaCl; association in 50 mM phosphate pH 6; dissociation in 50 mM phosphate pH 7.2 (Methods; Results and Discussion say pH 7.4). This is another data set of the same source.
The mark [12] stands for this setting: stress condition 40 °C‐1000 r.p.m._24 h.
Setting [13] is: stress condition 40 °C‐1000 r.p.m._48 h.

Like-named read-outs stand apart in the source and are kept apart here.

For the substance human IgG1, deamidated pH8.0_96 h, in [1], the Fraction bound (5 s after start of dissociation at neutral pH) was determined as 10%.

On to human IgG1, H2O2_0.5% oxidised, for which the Fraction bound (5 s after start of dissociation at neutral pH) in [1] amounted to 7.7%.

As for human IgG1, deamidated pH8.0_48 h, the Fraction bound (5 s after start of dissociation at neutral pH) in [1] turned out to be 7.8%.

For the substance “human IgG1 after thermal/shake stress at 40 °C and 1000 r.p.m. (antibody)”, the fraction bound at neutral pH was 7.9% in [2] (setting [12]) and 7.3% in [2] (setting [13]). In addition, the Kd in [3] (setting [12]) was 0.53 nM; in experiment [3] (setting [13]), 0.45 nM; in [4] (setting [12]), 5.5 nM; in [4] (setting [13]), 5 nM; in experiment [4] (stress condition 40 °C‐1000 r.p.m._72 h), 5.4 nM.

In turn, “fully deglycosylated human IgG1 (PNGase F) (antibody)” yielded a maximum response in experiment [3] of 5 RU. The equilibrium dissociation constant (Kd) in [4] was found to be 6.3 nM.

Turning to “human IgG1 heated to 70 °C for 15 min at 300 r.p.m. (antibody)”, the relative binding (% of reference) in experiment [5] is 93.4%; in [6], 72.7%; in experiment [7] it was 62.5%; in [8], 127%.

Take “human IgG1 with 70% afucosylation (antibody)”: in experiment [2], the fraction bound at neutral pH was 15.7%. Moreover, the Kd turned out to be 0.33 nM in experiment [3] and 3.8 nM in [4]. The relative binding (% of reference) in experiment [5] is 110%; in experiment [6], 159%; in [7] it was 104%; in experiment [8], 186%.

On to human IgG1, H2O2_0.25% oxidised, for which the Fraction bound (5 s after start of dissociation at neutral pH) in [1] was found to be 6.4%.

human IgG1, deamidated pH8.0_72 h: the Fraction bound (5 s after start of dissociation at neutral pH) in experiment [1] was found to be 6.5%.

“monomer fraction of the DSS-treated IgG1 sample (preparative SEC) (antibody)” had a fraction bound at neutral pH in experiment [2] of 8.9%. The figures for the Kd in experiment [9] and in experiment [10] were 0.52 nM and 7 nM, respectively.

Turning to “human IgG1, DG 100 (fully deglycosylated with PNGase F)”, the Fraction bound (5 s after start of dissociation at neutral pH) in experiment [1] amounted to 4.1%.

As to “human IgG1 with 3% afucosylation (antibody)”, in experiment [2], the fraction bound at neutral pH came out at 14.3%. For the same substance, the Kd in experiment [3] was 0.44 nM; in experiment [4] it was 3.7 nM. The relative binding (% of reference) came out at 90.6% in experiment [5], 79.7% in [6], 102% in experiment [7] and 83.9% in [8].

With human IgG1, 40 °C-1000 r.p.m._72 h, the Fraction bound (5 s after start of dissociation at neutral pH) in experiment [1] was 8.6%.

As to “human IgG1 heated to 75 °C for 15 min at 300 r.p.m. (antibody)”, the relative binding (% of reference) was more than 1000% in [5], 389% in experiment [6], more than 1000% in experiment [7] and more than 1000% in experiment [8].

Turning to human IgG1, 40 °C-1000 r.p.m._24 h, the Fraction bound (5 s after start of dissociation at neutral pH) in experiment [1] amounted to 7.9%.

Take “covalent dimer fraction of IgG1 (DSS cross-linked, preparative SEC) (antibody)”: the fraction bound at neutral pH in experiment [2] was 17.3%. Also, the Kd in experiment [9] was 0.08 nM.

As to human IgG1, 40 °C-1000 r.p.m._48 h, the Fraction bound (5 s after start of dissociation at neutral pH) in experiment [1] came out at 7.3%.

On to human IgG1, 5 freeze/thaw cycles, for which, in experiment [1], the Fraction bound (5 s after start of dissociation at neutral pH) was determined as 8.1%.

On to “human IgG1 with 8% afucosylation (antibody)”, for which the figures for the Kd in experiment [3] and in [4] were 0.43 nM and 3.7 nM, respectively.

Regarding “human IgG1 after accelerated asparagine deamidation at pH 8 (antibody)”, the fraction bound at neutral pH in experiment [2] (stress condition pH8.0_48 h) amounted to 7.8%; in [2] (stress condition pH8.0_72 h), 6.5%.

“human IgG1, DG 0 (glycosylated control of the deglycosylation experiment)”: the Fraction bound (5 s after start of dissociation at neutral pH) in experiment [1] is 8.5%.

As to human IgG1, 10 freeze/thaw cycles, the Fraction bound (5 s after start of dissociation at neutral pH) in [1] was determined as 7.4%.

In experiment [2], “human IgG1 kept at 40 °C in HBS buffer pH 7.2 (control of the deamidation stress) (antibody)” returned a fraction bound at neutral pH of 7.6%. Besides, the Kd in experiment [3] (stress condition pH7.2_48 h) was 0.59 nM; in experiment [3] (stress condition pH7.2_72 h), 0.48 nM; in [3] (stress condition pH7.2_96 h) it was 0.58 nM; in experiment [4] (stress condition pH7.2_48 h), 5.5 nM; in experiment [4] (stress condition pH7.2_72 h), 6.1 nM; in experiment [4] (stress condition pH7.2_96 h) it was 5.6 nM.

Turning to “human IgG1 after accelerated methionine oxidation with H2O2 (antibody)”, the fraction bound at neutral pH in experiment [2] was found to be 6.4%. Also, the Kd in experiment [3] (stress condition H2O2_0.1%) was 0.93 nM; in experiment [3] (stress condition H2O2_0.25%), 0.53 nM; in [3] (stress condition H2O2_0.5%), 0.42 nM; in [4], 6.2 nM.

For the substance human IgG1, AF 3 (3% afucosylated), in experiment [1], the Fraction bound (5 s after start of dissociation at neutral pH) came out at 14.3%.

As to human IgG1, pH7.2_96 h control, the Fraction bound (5 s after start of dissociation at neutral pH) in [1] is 7.9%.

As to “human IgG1 after repeated freeze/thaw cycles (antibody)”, the fraction bound at neutral pH in [2] (stress condition F‐T 1) came out at 8.4%; in experiment [2] (stress condition F‐T 5), 8.1%; in experiment [2] (stress condition F‐T 10), 7.4%. Also, the values for the Kd in [4] (stress condition F‐T 1) and in [4] (stress condition F‐T 10) were 5.7 nM and 5.2 nM, respectively. Further, the relative binding (% of reference) in experiment [5] (stress condition F‐T 1) was found to be 102%; in experiment [5] (stress condition F‐T 5), 97.2%; in experiment [5] (stress condition F‐T 10), 95.9%; in experiment [6] (stress condition F‐T 1) it was 80.1%; in experiment [6] (stress condition F‐T 5) it was 103%; in [6] (stress condition F‐T 10) it was 98.7%. Moreover, the relative binding (% of reference) was 102% in [7] (stress condition F‐T 1); 92.3% in experiment [7] (stress condition F‐T 5); 85.9% in experiment [7] (stress condition F‐T 10); 106% in experiment [8] (stress condition F‐T 1); 105% in experiment [8] (stress condition F‐T 5); 102% in experiment [8] (stress condition F‐T 10).

As for human IgG1, 1 freeze/thaw cycle, the Fraction bound (5 s after start of dissociation at neutral pH) in [1] amounted to 8.4%.

With human IgG1, pH7.2_48 h control, the Fraction bound (5 s after start of dissociation at neutral pH) in [1] stood at 7.6%.

For “human IgG1 monoclonal antibody, reference (unstressed)”, the Fraction bound (5 s after start of dissociation at neutral pH) in [1] came out at 8.3%; in experiment [11], 7.5%.

As for human IgG1, pH7.2_72 h control, the Fraction bound (5 s after start of dissociation at neutral pH) in experiment [1] was 8.3%.

Take “human IgG1, 0% deglycosylated control of the deglycosylation (antibody)”: the Kd in [3] came to 0.52 nM; in experiment [4] it was 4.9 nM.

With human IgG1, AF 70 (70% afucosylated), in experiment [1], the Fraction bound (5 s after start of dissociation at neutral pH) was found to be 15.7%.

Turning to “human IgG1, monomer fraction of the DSS cross-linking preparation”, the Fraction bound (5 s after start of dissociation at neutral pH) in [11] is 8.9%.

Source of the values: article PMC5623700.
